Reference: the supplement of paper PMC10065799, “High-throughput profiling of sequence recognition by tyrosine kinases and SH2 domains using bacterial peptide display” (eLife, 2023)

Experiments:
[1] = molecular target: Grb2 SH2 (UniProt P62993); assay: SH2 binding enrichment of the phosphorylated peptide, bacterial display (enrichment ratio); higher = better substrate or ligand; peptides without Tyr show the background
[2] = molecular target: c-Src SH2; assay: as above
[3] = molecular target: SHP2-C SH2; assay: as above
[4] = molecular target: EPHB1 (UniProt P54762); assay: phosphorylation enrichment, bacterial display (enrichment ratio); higher = better substrate or ligand; peptides without Tyr show the background
[5] = test system: c-Src; assay: as above
[6] = molecular target: Hck (UniProt P08631); assay: as above
Chain of Hck (P08631 whole entry, looked up): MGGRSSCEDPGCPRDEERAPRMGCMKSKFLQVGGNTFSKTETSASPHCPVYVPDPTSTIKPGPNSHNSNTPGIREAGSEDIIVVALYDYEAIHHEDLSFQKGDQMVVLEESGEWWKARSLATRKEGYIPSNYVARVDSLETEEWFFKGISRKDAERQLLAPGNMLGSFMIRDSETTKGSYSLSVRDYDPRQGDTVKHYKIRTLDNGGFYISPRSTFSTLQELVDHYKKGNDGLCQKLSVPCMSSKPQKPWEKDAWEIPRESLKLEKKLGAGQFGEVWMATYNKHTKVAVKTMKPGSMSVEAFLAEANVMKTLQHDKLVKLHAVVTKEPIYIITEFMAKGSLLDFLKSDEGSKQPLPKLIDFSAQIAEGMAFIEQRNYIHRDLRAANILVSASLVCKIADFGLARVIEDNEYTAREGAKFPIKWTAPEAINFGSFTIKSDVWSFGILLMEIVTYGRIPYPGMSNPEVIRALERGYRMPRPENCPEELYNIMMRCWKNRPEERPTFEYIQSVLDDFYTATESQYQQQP

[7] = test system: Fer (mouse); assay: as above
[8] = test system: AncSZ; assay: as above
[9] = molecular target: Fes (UniProt P07332); assay: as above
[10] = molecular target: MERTK (UniProt Q12866); assay: as above
Chain of MERTK (Q12866 whole entry, looked up): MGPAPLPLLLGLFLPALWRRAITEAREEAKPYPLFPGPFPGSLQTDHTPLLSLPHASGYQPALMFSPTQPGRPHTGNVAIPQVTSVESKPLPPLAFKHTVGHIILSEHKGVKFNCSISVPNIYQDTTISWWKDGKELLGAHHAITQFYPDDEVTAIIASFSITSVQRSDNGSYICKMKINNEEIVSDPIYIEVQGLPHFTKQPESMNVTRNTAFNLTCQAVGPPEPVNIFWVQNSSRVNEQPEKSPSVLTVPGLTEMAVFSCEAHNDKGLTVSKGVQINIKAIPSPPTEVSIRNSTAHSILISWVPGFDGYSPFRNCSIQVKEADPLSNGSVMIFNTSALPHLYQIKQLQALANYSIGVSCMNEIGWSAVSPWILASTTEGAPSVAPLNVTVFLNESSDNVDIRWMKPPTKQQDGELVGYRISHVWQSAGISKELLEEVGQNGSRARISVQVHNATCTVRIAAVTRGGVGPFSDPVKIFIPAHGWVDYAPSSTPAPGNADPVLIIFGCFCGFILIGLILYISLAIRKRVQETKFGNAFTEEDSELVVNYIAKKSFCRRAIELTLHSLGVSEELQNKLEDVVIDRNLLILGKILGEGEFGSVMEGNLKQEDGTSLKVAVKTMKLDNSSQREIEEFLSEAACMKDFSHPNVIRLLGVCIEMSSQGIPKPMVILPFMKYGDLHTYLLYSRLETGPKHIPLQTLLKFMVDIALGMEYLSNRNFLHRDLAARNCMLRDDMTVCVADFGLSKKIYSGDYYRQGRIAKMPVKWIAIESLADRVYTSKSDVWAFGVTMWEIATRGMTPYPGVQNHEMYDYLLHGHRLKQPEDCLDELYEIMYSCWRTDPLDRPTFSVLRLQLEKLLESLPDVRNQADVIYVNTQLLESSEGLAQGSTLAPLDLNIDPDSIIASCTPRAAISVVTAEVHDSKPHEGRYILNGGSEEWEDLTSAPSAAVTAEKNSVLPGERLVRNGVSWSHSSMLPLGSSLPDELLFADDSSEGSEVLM

[11] = molecular target: FGFR3 (UniProt P22607); assay: as above
Chain of FGFR3 (P22607 whole entry, looked up): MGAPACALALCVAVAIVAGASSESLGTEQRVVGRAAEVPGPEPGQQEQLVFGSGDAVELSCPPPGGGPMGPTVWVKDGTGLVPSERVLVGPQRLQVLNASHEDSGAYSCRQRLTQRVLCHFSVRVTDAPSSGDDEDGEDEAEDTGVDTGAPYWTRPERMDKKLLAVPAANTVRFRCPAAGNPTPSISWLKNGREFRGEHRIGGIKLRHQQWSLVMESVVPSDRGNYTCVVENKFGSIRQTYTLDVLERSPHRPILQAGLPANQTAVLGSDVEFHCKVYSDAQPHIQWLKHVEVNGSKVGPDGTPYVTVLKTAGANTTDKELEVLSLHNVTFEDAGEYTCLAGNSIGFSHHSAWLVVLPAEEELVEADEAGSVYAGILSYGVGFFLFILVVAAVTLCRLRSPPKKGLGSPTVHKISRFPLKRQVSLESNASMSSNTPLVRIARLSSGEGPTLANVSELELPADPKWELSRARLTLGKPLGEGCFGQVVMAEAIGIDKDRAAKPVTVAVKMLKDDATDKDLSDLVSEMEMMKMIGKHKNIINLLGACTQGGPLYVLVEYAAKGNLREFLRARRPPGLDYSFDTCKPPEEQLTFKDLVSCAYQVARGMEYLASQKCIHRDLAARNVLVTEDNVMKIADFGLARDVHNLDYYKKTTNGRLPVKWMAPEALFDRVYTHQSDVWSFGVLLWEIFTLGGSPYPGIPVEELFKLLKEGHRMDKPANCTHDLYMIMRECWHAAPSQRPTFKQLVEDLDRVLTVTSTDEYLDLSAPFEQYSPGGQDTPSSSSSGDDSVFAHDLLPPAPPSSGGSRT

[12] = test system: c-Abl (mouse); assay: as above
[13] = molecular target: EPHB2 (UniProt P29323); assay: as above
Chain of EPHB2 (P29323 whole entry, looked up): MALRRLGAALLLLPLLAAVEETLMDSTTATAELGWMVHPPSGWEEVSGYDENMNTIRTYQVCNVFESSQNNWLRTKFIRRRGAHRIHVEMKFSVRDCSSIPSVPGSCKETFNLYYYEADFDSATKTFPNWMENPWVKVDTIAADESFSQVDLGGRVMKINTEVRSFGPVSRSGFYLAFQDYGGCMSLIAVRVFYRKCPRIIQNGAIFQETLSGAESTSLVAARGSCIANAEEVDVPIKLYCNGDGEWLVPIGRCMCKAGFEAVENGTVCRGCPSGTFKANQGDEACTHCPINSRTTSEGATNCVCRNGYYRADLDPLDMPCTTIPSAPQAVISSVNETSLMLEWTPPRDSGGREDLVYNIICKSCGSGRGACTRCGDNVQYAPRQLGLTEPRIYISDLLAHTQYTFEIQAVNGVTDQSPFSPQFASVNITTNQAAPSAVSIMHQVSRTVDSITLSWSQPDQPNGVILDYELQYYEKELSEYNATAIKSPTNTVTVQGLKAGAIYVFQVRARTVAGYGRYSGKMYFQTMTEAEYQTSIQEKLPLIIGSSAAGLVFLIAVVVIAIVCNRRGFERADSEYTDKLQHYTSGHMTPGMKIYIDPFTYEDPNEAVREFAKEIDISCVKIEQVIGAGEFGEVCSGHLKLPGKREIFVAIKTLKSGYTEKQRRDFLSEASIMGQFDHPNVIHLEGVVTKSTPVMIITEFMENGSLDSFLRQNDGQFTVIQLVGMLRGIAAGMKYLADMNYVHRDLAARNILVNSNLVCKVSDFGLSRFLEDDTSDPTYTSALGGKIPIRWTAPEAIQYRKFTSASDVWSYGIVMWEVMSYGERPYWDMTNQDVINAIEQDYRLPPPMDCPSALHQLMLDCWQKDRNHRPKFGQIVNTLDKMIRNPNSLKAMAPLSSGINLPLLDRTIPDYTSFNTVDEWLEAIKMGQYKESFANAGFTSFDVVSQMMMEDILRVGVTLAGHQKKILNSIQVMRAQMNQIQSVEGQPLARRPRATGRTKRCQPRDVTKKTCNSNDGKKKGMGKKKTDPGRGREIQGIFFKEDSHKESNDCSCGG

[14] = molecular target: Jak2 (UniProt O60674); assay: as above
[15] = molecular target: FGFR1 (UniProt P11362); assay: as above
Chain of FGFR1 (P11362 whole entry, looked up): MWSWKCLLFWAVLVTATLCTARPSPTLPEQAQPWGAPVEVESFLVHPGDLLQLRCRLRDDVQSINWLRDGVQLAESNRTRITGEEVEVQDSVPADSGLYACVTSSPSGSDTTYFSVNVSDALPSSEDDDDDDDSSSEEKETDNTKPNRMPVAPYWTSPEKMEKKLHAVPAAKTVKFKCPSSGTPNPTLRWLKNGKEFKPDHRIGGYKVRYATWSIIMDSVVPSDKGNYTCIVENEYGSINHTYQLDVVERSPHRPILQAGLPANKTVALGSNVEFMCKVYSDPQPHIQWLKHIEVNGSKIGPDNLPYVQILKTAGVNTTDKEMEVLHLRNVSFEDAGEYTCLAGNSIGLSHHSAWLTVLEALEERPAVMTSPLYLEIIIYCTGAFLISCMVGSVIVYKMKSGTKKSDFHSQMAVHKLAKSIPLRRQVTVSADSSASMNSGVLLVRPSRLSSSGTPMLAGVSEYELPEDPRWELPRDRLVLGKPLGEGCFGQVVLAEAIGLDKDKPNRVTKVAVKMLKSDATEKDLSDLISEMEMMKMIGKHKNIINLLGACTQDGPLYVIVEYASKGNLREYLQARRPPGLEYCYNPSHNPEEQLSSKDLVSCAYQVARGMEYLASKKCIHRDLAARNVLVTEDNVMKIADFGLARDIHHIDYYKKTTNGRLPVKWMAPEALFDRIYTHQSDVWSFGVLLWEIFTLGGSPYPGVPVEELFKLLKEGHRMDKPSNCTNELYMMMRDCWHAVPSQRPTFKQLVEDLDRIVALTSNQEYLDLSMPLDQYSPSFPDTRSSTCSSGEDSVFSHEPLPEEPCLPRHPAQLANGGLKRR

[16] = molecular target: Fyn (UniProt P06241); assay: as above
Chain of Fyn (P06241 whole entry, looked up, the tested form may be a part): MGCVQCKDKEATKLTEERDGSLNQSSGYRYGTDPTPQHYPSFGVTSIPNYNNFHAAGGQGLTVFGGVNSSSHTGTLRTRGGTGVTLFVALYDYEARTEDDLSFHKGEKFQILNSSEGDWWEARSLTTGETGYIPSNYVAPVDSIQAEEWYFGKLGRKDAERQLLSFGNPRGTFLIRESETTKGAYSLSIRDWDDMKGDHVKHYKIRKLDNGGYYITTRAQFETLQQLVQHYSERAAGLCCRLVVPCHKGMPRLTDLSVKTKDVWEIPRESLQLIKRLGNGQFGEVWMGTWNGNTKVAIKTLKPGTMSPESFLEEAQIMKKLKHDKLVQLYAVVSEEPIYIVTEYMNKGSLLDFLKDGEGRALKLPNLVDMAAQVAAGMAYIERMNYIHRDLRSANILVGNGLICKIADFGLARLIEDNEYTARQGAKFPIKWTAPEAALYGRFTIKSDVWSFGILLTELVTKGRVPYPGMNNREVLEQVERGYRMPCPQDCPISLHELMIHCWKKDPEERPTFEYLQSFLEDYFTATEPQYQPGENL
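Throughout, for SH2 binding enrichment of the phosphorylated peptide, bacterial display: peptide library displayed on the E. coli surface as eCPX fusions, selected cells deep-sequenced, score is each peptide's frequency after selection divided by its frequency in the input.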
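Throughout, for phosphorylation enrichment, bacterial display: 11-residue human phosphosite peptides and single-mutation variants displayed on the E. coli surface, counted by deep sequencing, each peptide's frequency after selection divided by its frequency in the unselected input library; frequency after pTyr selection over input frequency; kinase dosed for 20-30% of maximal phosphorylation in three min.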

| SH2 binding enrichment [1] | SH2 binding enrichment [2] | SH2 binding enrichment [3] | Sequence | phosphorylation enrichment [4] | phosphorylation enrichment [5] | phosphorylation enrichment [6] | phosphorylation enrichment [7] | phosphorylation enrichment [8] | phosphorylation enrichment [9] | phosphorylation enrichment [10] | phosphorylation enrichment [11] | phosphorylation enrichment [12] | phosphorylation enrichment [13] | phosphorylation enrichment [14] | phosphorylation enrichment [15] | phosphorylation enrichment [16] |
| --- | --- | --- | --- | --- | --- | --- | --- | --- | --- | --- | --- | --- | --- | --- | --- | --- |
| 1.09 | 0.651 | 0.823 | FTFDPYSEEDP [IL2RB_Y387_YF] | 0.694 | 1.18 | 0.562 | 0.686 | 1.08 | 1.23 | 0.426 | 0.698 | 0.772 | 0.642 | 1.17 | 0.61 | 0.839 |
| 0.944 | 0.743 | 1.01 | VDGSVYELHPS [GCK_Y413_K414E] | 2.35 | 9.02 | 8.06 | 16 | 1.56 | 1.09 | 3.82 | 0.676 | 0.94 | 3.42 | 0.981 | 0.597 | 12.1 |
| 0.944 | 0.487 | 0.548 | DTFDPYLDIAL [USP36_Y268_V271I_YF] | 0.73 | 0.832 | 0.577 | 1.08 | 1.25 | 1.52 | 0.527 | 1 | 0.727 | 0.589 | 1.39 | 0.783 | 0.692 |
| 0.599 | 0.483 | 0.746 | RRGTRYMFSRP [RPL21_Y13] | 0.782 | 0.922 | 0.853 | 0.887 | 0.952 | 0.594 | 0.837 | 0.554 | 0.971 | 0.768 | 0.625 | 0.859 | 0.829 |
| 1.14 | 0.498 | 0.919 | VNKIFYPDFIV [LIG3_Y768_YF] | 0.465 | 0.432 | 0.529 | 0.5 | 1 | 1.08 | 0.518 | 0.584 | 0.612 | 0.928 | 0.811 | 0.49 | 0.464 |
| 0.723 | 0.402 | 0.566 | GADDSYFTARS [ZAP70_Y492_YF] | 0.299 | 0.417 | 0.444 | 0.417 | 0.657 | 0.79 | 0.406 | 0.51 | 0.401 | 0.44 | 0.577 | 0.557 | 0.457 |

Continued, sequence first:

| Sequence | SH2 binding enrichment [1] | SH2 binding enrichment [2] | SH2 binding enrichment [3] | phosphorylation enrichment [4] | phosphorylation enrichment [5] | phosphorylation enrichment [6] | phosphorylation enrichment [7] | phosphorylation enrichment [8] | phosphorylation enrichment [9] | phosphorylation enrichment [10] | phosphorylation enrichment [11] | phosphorylation enrichment [12] | phosphorylation enrichment [13] | phosphorylation enrichment [14] | phosphorylation enrichment [15] | phosphorylation enrichment [16] |
| --- | --- | --- | --- | --- | --- | --- | --- | --- | --- | --- | --- | --- | --- | --- | --- | --- |
| QYKDKYLAKHN [CASK_Y712] | 0.648 | 1.02 | 0.798 | 0.501 | 0.308 | 0.207 | 0.349 | 0.401 | 0.927 | 0.283 | 0.663 | 0.458 | 0.402 | 0.605 | 0.526 | 0.436 |
| DLAGRYYALRS [CKB_Y173_K177R] | 0.775 | 1.87 | 0.9 | 0.352 | 0.487 | 0.681 | 0.477 | 0.729 | 0.649 | 2.19 | 0.811 | 0.544 | 0.439 | 1.65 | 0.963 | 0.484 |
| RKLASYRSCLL [DHX37_Y1080] | 1.04 | 0.861 | 1.04 | 0.321 | 0.486 | 0.468 | 0.768 | 0.75 | 0.811 | 0.356 | 0.617 | 0.627 | 0.492 | 0.633 | 0.581 | 0.515 |
| LDLPGYCPLRE [CCDC116_Y291] | 0.754 | 0.611 | 0.736 | 1.09 | 0.773 | 1.1 | 1.09 | 1.55 | 1.97 | 0.767 | 1.36 | 1.28 | 0.668 | 1.64 | 0.916 | 0.96 |
| FSTPPYLLEAA [BRIP1_Y921_S919P_YF] | 0.952 | 0.607 | 0.655 | 0.521 | 0.669 | 0.434 | 0.579 | 0.95 | 1 | 0.497 | 0.707 | 0.76 | 0.601 | 0.909 | 0.63 | 0.619 |
| VNQSGYTLIRK [ATP6V0A2_Y688_R685Q] | 0.861 | 8.52 | 9.3 | 0.42 | 0.418 | 0.476 | 0.401 | 0.572 | 0.563 | 0.433 | 0.465 | 0.391 | 0.478 | 0.538 | 0.452 | 0.387 |
| KYLENYLNRLL [PLD2_Y169] | 1.46 | 1.27 | 1.44 | 0.523 | 0.475 | 0.414 | 0.609 | 0.832 | 0.989 | 0.478 | 0.577 | 0.809 | 0.483 | 0.859 | 0.459 | 0.45 |
| KFMVGYEMLAK [GALT_Y339_Q344K] | 0.867 | 1.7 | 0.544 | 0.477 | 0.406 | 0.586 | 0.349 | 0.914 | 1.03 | 0.407 | 0.631 | 0.51 | 0.604 | 0.698 | 0.776 | 0.507 |
